From patent US20260242478A1 (published 2026)
Where no end group is shown, it is not given here.

What was measured:
PSMA Fab [1] = target: T1, PSMA Fab; assay: clonal phage ELISA on captured PSMA Fab pre-incubated with PSMA antigen as competitor;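 also: crude clonal phage supernatants added to wells without washing away the PSMA competitor, bound phage detected by HRP-conjugated anti-M13 antibody, reference wells received blocking buffer only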
T1 construct: also called Anti-PSMA Fab; 006 PSMA Fab
Method: (§1) Clonal phage were harvested as crude supernatants and screened via standard ELISAs. […] Prior to the addition of clonal phage. wells were incubated with blocking buffer and PSMA antigen or blocking buffer alone. Without washing or aspirating, clonal phage supernatants were then added to the wells and incubated for a short time. Wells were then washed followed by detection of bound phage using a horse radish conjugated anti-M13 antibody.

PSMA Fab [2] = target: T1, PSMA Fab; assay: clonal phage ELISA on biotinylated PSMA Fab captured on neutravidin, anti-M13 HRP detection;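 also: crude clonal phage supernatants added to wells pretreated with PSMA antigen in blocking buffer or with blocking buffer only, then briefly incubated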
Method: as §1

PSMA Fab (006 PSMA Fab) [3] = target: T2, PSMA Fab (006 PSMA Fab); assay: phage binding ELISA; PSMA Fab wells pre-incubated with PSMA antigen as competitor, anti-M13 HRP detection
T2 construct: also called Anti-PSMA Fab
Method: as §1

PSMA Fab (006 PSMA Fab) [4] = target: T2, PSMA Fab (006 PSMA Fab); assay: phage binding ELISA; biotinylated PSMA Fab on neutravidin plate, clonal phage supernatant, anti-M13 HRP detection;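 also: wells were preincubated with blocking buffer either containing PSMA antigen or without it before crude phage supernatant was added, briefly incubated, then washed prior to detection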
Method: as §1

PSMA Fab [5] = target: T3, PSMA Fab; assay: clonal phage ELISA on captured PSMA Fab pre-incubated with PSMA antigen as competitor, anti-M13 HRP detection;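 also: crude clonal phage supernatants tested by ELISA, wells first treated with blocking buffer plus PSMA antigen, bound phage read out via HRP-linked anti-M13 antibody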
T3 construct: also called Anti-PSMA Fab; 006 PSMA Fab
Method: as §1

PSMA Fab [6] = target: T3, PSMA Fab; assay: clonal phage ELISA on biotinylated PSMA Fab captured on neutravidin plates, anti-M13 HRP detection, blocking buffer alone
Method: as §1

B1: Phage-3157 (peptide)
peptide: QMPMCRPAWMCMGF
modifications: cysteine pairing not given here; also: fused to phage pIII, orientation and linker not given here
- Phage binding ELISA signal, Anti-PSMA Fab in presence of PSMA (PSMA Fab [1]): 0.105
- Phage binding ELISA signal, Anti-PSMA Fab (PSMA Fab [2]): 2.04

Binder: ANLLCIPNWMCSGF [Phage-3172]
- Phage binding ELISA signal, Anti-PSMA Fab with PSMA antigen (PSMA Fab (006 PSMA Fab) [3]): 0.0969
- Phage binding ELISA signal, Anti-PSMA Fab (PSMA Fab (006 PSMA Fab) [4]): 2.02

B2: Phage-3152 (peptide)
peptide: WDQWCVPKWMCQGF
modifications: cysteine pairing not given here; also: fused to phage pIII, orientation and linker not given here
notes: Clonal phage of the Peptide-180 library, tested as crude supernatant; not shown: fused to pIII of the bacteriophage
- phage binding ELISA signal (Anti-PSMA Fab, PSMA antigen present) (PSMA Fab [5]): 0.197
- Phage binding ELISA signal, Anti-PSMA Fab (PSMA Fab [6]): 2.04

B3: Phage-3170 (peptide)
peptide: EVKFCKPAWMCTGF
modifications: cysteine pairing not given here; also: fused to phage pIII, fusion site not given here
- Phage binding ELISA signal, Anti-PSMA Fab in presence of PSMA (PSMA Fab [1]): 0.0863
- Phage binding ELISA signal, Anti-PSMA Fab (PSMA Fab [2]): 2.02

Binder: HERECIPRWMCTGF [Phage-3180]
- Phage binding ELISA signal, Anti-PSMA Fab with PSMA antigen (PSMA Fab (006 PSMA Fab) [3]): 0.065
- Phage binding ELISA signal, Anti-PSMA Fab (PSMA Fab (006 PSMA Fab) [4]): 2.01

B4: Phage-3162 (peptide)
peptide: ETALCRPLWMCDWL
modifications: cysteine pairing not given here; also: fused to phage pIII, fusion site not given here
- Phage binding ELISA signal, Anti-PSMA Fab in presence of PSMA (PSMA Fab [1]): 0.0692
- Phage binding ELISA signal, Anti-PSMA Fab (PSMA Fab [2]): 2.03

B5: Phage-3161 (peptide)
peptide: NHVQCVPNWMCSGF
modifications: cysteine pairing not given here; also: fused to phage pIII, fusion site not given here
- Phage binding ELISA signal, Anti-PSMA Fab in presence of PSMA (PSMA Fab [1]): 0.138
- Phage binding ELISA signal, Anti-PSMA Fab (PSMA Fab [2]): 2.03

Binder: YEPVCRPAWMCIGF [Phage-3177]
- Phage binding ELISA signal, Anti-PSMA Fab with PSMA antigen (PSMA Fab (006 PSMA Fab) [3]): 0.0622
- Phage binding ELISA signal, Anti-PSMA Fab (PSMA Fab (006 PSMA Fab) [4]): 2.02

B6: Phage-3155 (peptide)
peptide: VSSMCKPAWMCSGF
modifications: cysteine pairing not given here; also: fused to phage pIII, orientation and linker not given here
notes: as for B2
- phage binding ELISA signal (Anti-PSMA Fab, PSMA antigen present) (PSMA Fab [5]): 0.0629
- Phage binding ELISA signal, Anti-PSMA Fab (PSMA Fab [6]): 2.04

Binder: GVSMCIPAWMCQGF [Phage-3181]
- Phage binding ELISA signal, Anti-PSMA Fab with PSMA antigen (PSMA Fab (006 PSMA Fab) [3]): 0.0737
- Phage binding ELISA signal, Anti-PSMA Fab (PSMA Fab (006 PSMA Fab) [4]): 2.01

Binder: YPSMCKPLWMCQGF [Phage-3175]
- Phage binding ELISA signal, Anti-PSMA Fab with PSMA antigen (PSMA Fab (006 PSMA Fab) [3]): 0.111
- Phage binding ELISA signal, Anti-PSMA Fab (PSMA Fab (006 PSMA Fab) [4]): 2.02

Binder: YMMICRPAWMCSGL [Phage-3179]
- Phage binding ELISA signal, Anti-PSMA Fab with PSMA antigen (PSMA Fab (006 PSMA Fab) [3]): 0.116
- Phage binding ELISA signal, Anti-PSMA Fab (PSMA Fab (006 PSMA Fab) [4]): 2.01

B7: Phage-3154 (peptide)
peptide: PWIVCKPAWMCTGF
modifications: cysteine pairing not given here; also: fused to phage pIII, orientation and linker not given here
notes: as for B2
- phage binding ELISA signal (Anti-PSMA Fab, PSMA antigen present) (PSMA Fab [5]): 0.118
- Phage binding ELISA signal, Anti-PSMA Fab (PSMA Fab [6]): 2.04

Binder: YEQACQPPWMCLGF [Phage-3178]
- Phage binding ELISA signal, Anti-PSMA Fab with PSMA antigen (PSMA Fab (006 PSMA Fab) [3]): 0.0671
- Phage binding ELISA signal, Anti-PSMA Fab (PSMA Fab (006 PSMA Fab) [4]): 2.02

B8: Phage-3166 (peptide)
peptide: LVRVCTPMWMCQGF
modifications: cysteine pairing not given here; also: fused to phage pIII, fusion site not given here
- Phage binding ELISA signal, Anti-PSMA Fab in presence of PSMA (PSMA Fab [1]): 0.058
- Phage binding ELISA signal, Anti-PSMA Fab (PSMA Fab [2]): 2.03

B9: Phage-3163 (peptide)
peptide: DIHLCTPNWMCSGF
modifications: cysteine pairing not given here; also: fused to phage pIII, fusion site not given here
- Phage binding ELISA signal, Anti-PSMA Fab in presence of PSMA (PSMA Fab [1]): 0.0738
- Phage binding ELISA signal, Anti-PSMA Fab (PSMA Fab [2]): 2.03

Binder: VTRMCVPEWMCSGI [Phage-3176]
- Phage binding ELISA signal, Anti-PSMA Fab with PSMA antigen (PSMA Fab (006 PSMA Fab) [3]): 0.0628
- Phage binding ELISA signal, Anti-PSMA Fab (PSMA Fab (006 PSMA Fab) [4]): 2.02

B10: Phage-3156 (peptide)
peptide: IQVMCRPAWMCSGF
modifications: cysteine pairing not given here; also: fused to phage pIII, orientation and linker not given here
notes: as for B2
- phage binding ELISA signal (Anti-PSMA Fab, PSMA antigen present) (PSMA Fab [5]): 0.0959
- Phage binding ELISA signal, Anti-PSMA Fab (PSMA Fab [6]): 2.04

B11: Phage-3158 (peptide)
peptide: IVPYCMPQWMCSGF
modifications: cysteine pairing not given here; also: fused to phage pIII, orientation and linker not given here
- Phage binding ELISA signal, Anti-PSMA Fab in presence of PSMA (PSMA Fab [1]): 0.107
- Phage binding ELISA signal, Anti-PSMA Fab (PSMA Fab [2]): 2.04

B12: Phage-3165 (peptide)
peptide: NVHYCVPAWMCNGF
modifications: cysteine pairing not given here; also: fused to phage pIII, fusion site not given here
- Phage binding ELISA signal, Anti-PSMA Fab in presence of PSMA (PSMA Fab [1]): 0.163
- Phage binding ELISA signal, Anti-PSMA Fab (PSMA Fab [2]): 2.03

B13: Phage-3167 (peptide)
peptide: TYPKCIPPWMCTGF
modifications: cysteine pairing not given here; also: fused to phage pIII, fusion site not given here
- Phage binding ELISA signal, Anti-PSMA Fab in presence of PSMA (PSMA Fab [1]): 0.115
- Phage binding ELISA signal, Anti-PSMA Fab (PSMA Fab [2]): 2.03

B14: Phage-3159 (peptide)
peptide: WMAMCKPVWMCEGF
modifications: cysteine pairing not given here; also: fused to phage pIII, orientation and linker not given here
- Phage binding ELISA signal, Anti-PSMA Fab in presence of PSMA (PSMA Fab [1]): 0.163
- Phage binding ELISA signal, Anti-PSMA Fab (PSMA Fab [2]): 2.04

B15: Phage-3153 (peptide)
peptide: DMSLCKPPWMCFGF
modifications: cysteine pairing not given here; also: fused to phage pIII, orientation and linker not given here
notes: as for B2
- phage binding ELISA signal (Anti-PSMA Fab, PSMA antigen present) (PSMA Fab [5]): 0.0792
- Phage binding ELISA signal, Anti-PSMA Fab (PSMA Fab [6]): 2.04

B16: Phage-3171 (peptide)
peptide: GEVFCIPAWMCAGF
modifications: cysteine pairing not given here; also: fused to phage pIII, fusion site not given here
- Phage binding ELISA signal, Anti-PSMA Fab with PSMA antigen (PSMA Fab (006 PSMA Fab) [3]): 0.107
- Phage binding ELISA signal, Anti-PSMA Fab (PSMA Fab (006 PSMA Fab) [4]): 2.02

B17: Phage-3160 (peptide)
peptide: LALRCEPSWMCLGF
modifications: cysteine pairing not given here; also: fused to phage pIII, orientation and linker not given here
- Phage binding ELISA signal, Anti-PSMA Fab in presence of PSMA (PSMA Fab [1]): 0.112
- Phage binding ELISA signal, Anti-PSMA Fab (PSMA Fab [2]): 2.03

B18: Phage-3169 (peptide)
peptide: VEKLCKPEWMCMGF
modifications: cysteine pairing not given here; also: fused to phage pIII, fusion site not given here
- Phage binding ELISA signal, Anti-PSMA Fab in presence of PSMA (PSMA Fab [1]): 0.0909
- Phage binding ELISA signal, Anti-PSMA Fab (PSMA Fab [2]): 2.02

B19: Phage-3164 (peptide)
peptide: MDKICSPMWMCLGF
modifications: cysteine pairing not given here; also: fused to phage pIII, fusion site not given here
- Phage binding ELISA signal, Anti-PSMA Fab in presence of PSMA (PSMA Fab [1]): 0.0702
- Phage binding ELISA signal, Anti-PSMA Fab (PSMA Fab [2]): 2.03

Binder: VTAKCVPEWMCTGF [Phage-3174]
- Phage binding ELISA signal, Anti-PSMA Fab with PSMA antigen (PSMA Fab (006 PSMA Fab) [3]): 0.0968
- Phage binding ELISA signal, Anti-PSMA Fab (PSMA Fab (006 PSMA Fab) [4]): 2.02

B20: Phage-3168 (peptide)
peptide: ADWLCRPAWMCEGL
modifications: cysteine pairing not given here; also: fused to phage pIII, fusion site not given here
- Phage binding ELISA signal, Anti-PSMA Fab in presence of PSMA (PSMA Fab [1]): 0.0589
- Phage binding ELISA signal, Anti-PSMA Fab (PSMA Fab [2]): 2.02

Binder: MDRMCVPEWMCYVF [Phage-3173]
- Phage binding ELISA signal, Anti-PSMA Fab with PSMA antigen (PSMA Fab (006 PSMA Fab) [3]): 0.0741
- Phage binding ELISA signal, Anti-PSMA Fab (PSMA Fab (006 PSMA Fab) [4]): 2.02
